# According to patent publication US20220064274A1 (SHANGHAI YILE BIOTECHNOLOGY, published 2022):
# No end group written: not given here.
# T1: DH Peptide (human, also: biotinylated, position not given here)
# T1 construct: Synthetic; also called polypeptide DH; Biotinylated DH peptide
# T1 peptide: DAANMSMRVRRH
# T2: LL peptide (human, also: biotinylated, position not given here)
# T2 construct: Synthetic; also called Biotinylated LL peptide
# T2 peptide: LLFLLEEYKNYL
# T3: VP peptide (human, also: biotinylated, position not given here)
# T3 construct: Synthetic; also called Biotinylated VP peptide
# T3 peptide: VMLSSQVPLEPP
# T4: GST-human proBDNF-E2 peptide (human, UniProt P23560 76-129)
# T4 construct: not shown: GST (glutathione S-transferase) fusion partner
# T4 sequence: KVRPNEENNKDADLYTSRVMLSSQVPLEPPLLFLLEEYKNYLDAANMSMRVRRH
# T5: GST-human proBDNF-E5 peptide (human)
# T5 construct: not shown: GST (glutathione S-transferase) fusion partner
# T5 chain: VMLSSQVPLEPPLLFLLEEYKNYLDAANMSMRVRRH
# T6: GST-huBDNFpro4
# T6 construct: Printed on the sheet without the E ('GST-huBDNFpro4'); also called E4; GST-human proBDNF-E4 peptide
# T6 peptide: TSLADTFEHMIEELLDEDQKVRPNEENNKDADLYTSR
# T7: human proBDNF precursor protein (human, UniProt P23560 19-247)
# T7 construct: also called human proBDNF precursor recombinant protein
# T7 sequence (looked up): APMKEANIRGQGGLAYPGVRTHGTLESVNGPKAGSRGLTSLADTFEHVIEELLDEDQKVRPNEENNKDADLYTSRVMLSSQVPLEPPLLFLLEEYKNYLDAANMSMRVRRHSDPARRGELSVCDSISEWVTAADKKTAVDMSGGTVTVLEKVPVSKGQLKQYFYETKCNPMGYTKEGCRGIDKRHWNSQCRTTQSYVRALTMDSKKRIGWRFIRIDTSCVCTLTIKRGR
# B1: 1D3 Monoclonal antibody (antibody, V domains shown)
# VH: QVQLVESGGGLIQPGGSMRLSCAASGFSLSGYDMHWVRQIAGKGLEWVAGLGMEGDSYYSASVKGRFTISRQDAKNSLYLEMKDLGGGDTAVYYCLRDVHGFDVWGQGTTVTVSS
# VL: DVVMTQSPLSLPVTPGEPASISCRSSQSLLYSNGYTYLDWYLQRPGQSPQLLIYMGSNRASGVPDRFSGSGSGTDFTLKISRVEAEDVGVYYCMQALQTPLTFGGGTKLEIKR
# notes: also called recombinant monoclonal antibody 1D3; fully human monoclonal antibody 1D3
# B2: 2H8 Monoclonal antibody (antibody, V domains shown)
# VH: EVQLVETGGGLVQPGGSLRLSCAASGFTFSSYGMHWVRQAPGKGLEWVSVISGSGDSTYYAESVKGRFTISRDNARNTVYLQMNSLRAEDTAVYYCASGILTGYVFDYWGKGTMVTVSS
# VL: DVVMTQSPLSLPVTLGQPASISCRSSQSLVSNDGNTYLNWFQQRPGQPPRRLIYMVSKWDSGVPDRFSGSGSGTDFTLRISRVEAEDVGVYYCMQSTHWPPTFGGGTKLEIKR
# notes: also called recombinant monoclonal antibody 2H8
# Key:
# DH Peptide = target: T1, DH Peptide; experiment: ELISA, biotinylated peptide
# Text: (§1) The E5 peptide was further divided into three equal peptide segments, each comprising 12 amino acids, namely VP peptide ([…], SEQ ID NO: 33), LL peptide ([…], SEQ ID NO: 34), DH Peptide ([…], SEQ ID NO: 35). Biotinylated VP peptide, LL peptide and DH peptide were synthesized in vitro by GL Biochemical (Shanghai) Ltd. and the binding of antibodies was detected by ELISA.
# LL peptide = target: T2, LL peptide; experiment: ELISA, biotinylated peptide
# Text: as §1
# VP peptide = target: T3, VP peptide; experiment: ELISA, biotinylated peptide
# Text: as §1
# [1] = target: T4, GST-human proBDNF-E2 peptide; experiment: ELISA on GST fusion proteins
# Text: (§2) The five peptides were fused with GST and expressed, and then purified. The binding of antibodies 1D3 and 2H8 was detected by ELISA.
# [2] = target: T5, GST-human proBDNF-E5 peptide; experiment: ELISA on GST fusion proteins
# Text: as §2
# GST-huBDNFpro4 = target: T6, GST-huBDNFpro4; experiment: ELISA, GST fusion protein coated, absorbance at 450 nm
# Text: as §2
# [3] = target: T7, human proBDNF precursor protein; experiment: SPR, Biacore T200, capture method, human proBDNF precursor protein at 0.25-8 nM
# Protocol: The affinity and kinetic parameters of the 1D3 and 2H8 monoclonal antibodies were measured by the capture method using the Biacore T200 system (purchased from GE). The operation is referred to the instruction. The adopted concentrations of human proBDNF precursor protein were 0.25nM, 0.5nM, 1nM, 2nM, 4nM and 8nM, respectively. The Biacore T200 evaluation software was used to evaluate the obtained action curve and to calculate the KD value of affinity . FIG. 1A and FIG. 1B respectively show the kinetic curves of monoclonal antibodies 1D3 and 2H8 in the Biacore affinity determination experiment.
Binder,binding result (DH Peptide),binding result (LL peptide),binding result (VP peptide),binding result [1],binding result [2],binding result (GST-huBDNFpro4),Kd [3] [nM],koff [3] [s⁻¹],kon [3] [M⁻¹ s⁻¹]
B1,binds,no binding,no binding,binds,binds,no binding,–,–,–
B2,binds,no binding,no binding,–,binds,no binding,1.91,0.00594,3.1e+06
